# Test results taken from patent US9669057.
# Target: mouse CD40 (mouse) (UniProt P27512)
# Test: cell-based or functional assay
# Sequence of UniProt P27512 (P27512 20-289): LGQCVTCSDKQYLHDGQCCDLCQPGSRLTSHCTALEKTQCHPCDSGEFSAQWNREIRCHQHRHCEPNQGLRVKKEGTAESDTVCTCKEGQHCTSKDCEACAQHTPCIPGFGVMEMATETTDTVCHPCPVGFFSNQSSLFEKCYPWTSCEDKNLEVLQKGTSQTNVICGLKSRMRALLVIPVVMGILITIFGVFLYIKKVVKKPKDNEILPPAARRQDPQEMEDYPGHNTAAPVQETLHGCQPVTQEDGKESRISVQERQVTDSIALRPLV
substance,measurement,value
anti-mouse CD40 mAb (HM40-3) (antibody),"fold increase in frequency of cytoplasmic IL-10+ adult blood B cells, 48 h culture against 5 h L+PIM culture",6 to 9 fold
same,"reduction of LPS-induced IL-10 secretion by spleen B cells, ELISA of culture supernatant",> 68%
